Results on two molecules are retold here after patent US12358963B2, “Regenerative polypeptides and uses thereof” (Juvena Therapeutics, Inc., priority 2019, dated 2025).

Type in all cases: cell-based
The subject of one experiment is DM1 human myoblast. Kind of experiment: Gene expression fold change in DM1 human myoblast. The note with it: 48h; BMP7 50 ng/mL, Butyrate 100 nM, IGF2 200 ng/mL; FM 1.000.
Another experiment concerns mouse myoblast cells. Kind of experiment: Mouse myoblast proliferation assay (EdU). Conditions: 48h, vehicle 10.56. The protocol:
(§1) FIG. 5A) Bar graph quantitation of % EdU+ mouse myoblast in response to BMP7. Myoblast were cultured 48h in the presence of BMP7 at indicated dose. Fresh media and BMP7 was added every 24h, followed by 2 hour EdU pulse and fixation. Mean∓S.D. Significant p-values (Vehicle˜BMP7 0.025 ug/mL: 1.21E-07, Vehicle˜BMP7 0.075 ug/mL: 8.05E-07, Vehicle˜BMP7 0.2255 ug/mL: 3.37E-03, Vehicle˜BMP7 0.9 ug/mL: 4.99E-02). FIG. 5B) Bar graph quantitation of % EdU+ human myoblast (person) in response to BMP7. Myoblast were cultured 72h in the presence of BMP7 at indicated dose. Cells were pulsed with EdU for 4 hours before fixation. Mean∓S.D. Significant p-values (Vehicle˜BMP7 1.56 ng/mL: 0.04). (*p<0.05 by Welch's One-Tailed T-test, n=2)
FIG. 6A) Bar graph of % EdU+ mouse myoblast cells compared to vehicle. Mouse myoblast were cultured 48h in the presence of indicated factors, followed by a 2 hour EdU pulse prior to fixation. Mean∓S.D. Significant p-values (FM˜BMP7: 0.008 ug/mL: 3.17E-02, FM˜Leucine: 300 uM BMP7: 0.008 ug/mL: 2.77E-03, FM˜Leucine: 100 uM BMP7: 0.008 ug/mL: 3.72E-05, FM˜Leucine: 900 uM BMP7: 0.008 ug/mL: 2.52E-03). (*p<0.05 by One-Way ANOVA Tukey Honest Significant Difference, n=2-6)
FIG. 7A: Bar graph of % EdU+ mouse myoblast cells compared to vehicle. Mouse myoblast were cultured 48h in the presence of indicated factors. EdU pulse and fixation. Mean∓S.D. (*p<0.05 by Student's One-Tailed T-Test of increased activity, n=2-6)
FIG. 10A) The suspension CHO cells were transiently transfected with either the empty control plasmid or the FGF17-hFcm encoding plasmid. After four days, the culture supernatants were collected and added into the culture of mouse myoblast cells for 48 hours, followed by a 2 hour EdU pulse prior to fixation. […] FIG. 10B) The suspension CHO cells were transiently transfected with the FGF17-hFcm encoding plasmid. After four days, the culture supernatants were collected and FGF17-hFcm was affinity-purified by Protein A membrane column. The purified FGF17-hFcm was added into the culture of mouse myoblast cells for 48 hours, followed by a 2 hour EdU pulse and fixation.
FIG. 11A: SDS-PAGE of culture supernatants from CHO cells transiently transfected with FGF17-hFcm or its mutants encoding plasmids (FGF17d181-216-hFcm, FGF17d204-216-hFcm, FGF17R204QK207Q-hFcm). The expressed FGF17-hFcm proteins and the mutant proteins were indicated by the white arrowheads. FIG. 11B) The culture supernatants from CHO cells transiently transfected with different FGF17 encoding plasmids were added into the culture of mouse myoblast cells for 48 hours followed by 2 hour EdU pulse and fixation.
FIG. 12A) SDS-PAGE of culture supernatants from CHO cells transiently transfected with FGF17-hFcm or its mutants encoding plasmids (FGF17d197-216-hFcm, FGF17K191AK193AS200A-hFcm). The expressed FGF17-hFcm proteins and the mutant proteins were indicated by the white arrowheads. FIG. 12B) The culture supernatants from CHO cells transiently transfected with different FGF17 encoding plasmids were added into the culture of mouse myoblast cells for 48 hours, followed by 2 hour EdU pulse and fixation.
FIG. 14A: Bar graph of % EdU+ mouse myoblast cells compared to vehicle. Myoblast were cultured 48h in the presence of indicated factors. Fresh media and factors were added every 24h, followed by 2 hour EdU pulse and fixation. Mean∓S.D. Table quantitation of % EdU and p-values (*p<0.05 by One-Way ANOVA Tukey Honest Significant Difference, n=2-6)
FIG. 15A: Bar graph of % EdU+ mouse myoblast cells compared to vehicle. Myoblast were cultured 48h in the presence of indicated factors. Fresh media and factors were added every 24h, followed by 2 hour EdU pulse and fixation. Mean∓S.D. Table quantitation of % EdU and p-values shown. (*p<0.05 by Student's One-Tailed T-Test of increased activity, n=2-6)
Bar graph of total EdU+ mouse myoblast cells compared per condition. Myoblast were cultured 48h in the presence of indicated factors. […]

The test system of another experiment is human myoblast. Kind of experiment: Human myoblast proliferation (nuclei counts, EdU counts). Conditions: 72h, vehicle 2083.5. The protocol: as §1
Bar graph of total EdU+ mouse myoblast cells compared per condition. Myoblast were cultured 48h in the presence of indicated factors. Fresh media and factors were added every 24h, followed by 2 hour EdU pulse and fixation. Mean∓Standard Deviation(SD) Table quantitation of EdU counts per field and p-values for mouse assay (*p<0.05 by Student's One-Tailed T-Test of increased activity, n=3-6, Synergy values <1 are evidence of effect). Bar graph of total EdU+ human myoblast cells per condition. Myoblast were cultured 72h in the presence of indicated factors, followed by 4 hour EdU pulse and fixation. Fresh media and factors were added every 24h. Mean∓Standard Deviation(SD). Table quantitation of +EdU counts and p-values for human assay. (*p<0.05 by Student's One-Tailed T-Test of increased activity, n=3-6, Synergy values <1 are evidence of effect)

The next experiment deals with human chondrocyte. Kind of experiment: Human chondrocyte proliferation (% EdU+). Conditions: 0.1 ug/mL, 48h; vehicle 0.744. The protocol: Chondrocytes were cultured for 48h in the presence of FGF17 at indicated dose. FGF18 was added at 0.1 ug/mL as a positive control. Fresh media and FGF17 was added every 24h. Table of % EdU+ chondrocyte and p-values depicted. Mean∓S.D. (*p<0.05 by Tukey Honest Significant Difference T-test, n=2-3)

B1: BMP7: BMP7 polypeptide, BMP receptor agonist (protein, UniProt P18075 293-431, looked up)
Bone morphogenetic protein 7: STGSKQRSQNRSKTPKNQEALRMANVAENSSSDQRQACKKHELYVSFRDLGWQDWIIAPEGYAAYYCEGECAFPLNSYMNATNHAIVQTLVHFINPETVPKPCCAPTQLNAISVLYFDDSSNVILKKYRNMVVRACGCH
As for B1, the “MYF5 expression fold change compared to FM” value in the experiment on DM1 human myoblast was found to be 0.709. In addition, in the experiment on DM1 human myoblast, the “MYOD1 expression fold change compared to FM” value is recorded as 0.709. Also, in the experiment on DM1 human myoblast, the “MYOG expression fold change compared to FM” value turned out to be 0.361. The “% EdU” value is 18.08% in the experiment with mouse myoblast cells (BMP7 0.025 ug/mL); 17.53% in the experiment on mouse myoblast cells (BMP7 0.075 ug/mL); 14.93% in the experiment with mouse myoblast cells (BMP7 0.2255 ug/mL); 12.93% in the experiment with mouse myoblast cells (BMP7 0.45 ug/mL); 13.91% in the experiment with mouse myoblast cells (BMP7 0.9 ug/mL); 10.37% in the experiment on mouse myoblast cells (BMP7 1.8 ug/mL). In addition, the “Nuclei Counts” value in the experiment with human myoblast (BMP7 0.78 ng/mL, donor) worked out at 2144.5; with human myoblast (BMP7 1.56 ng/mL), 2552.5; in the experiment on human myoblast (BMP7 3.12 ng/mL), 2408; in the experiment on human myoblast (BMP7 6.25 ng/mL), 2422.5; in the experiment on human myoblast (BMP7 12.5 ng/mL), 2706; in the experiment on human myoblast (BMP7 25 ng/mL), 2509.

B2: FGF18: FGF18 added at 0.1 ug/mL as a positive control (protein, UniProt O76093 28-207, looked up)
Fibroblast growth factor 18: EENVDFRIHVENQTRARDDVSRKQLRLYQLYSRTSGKHIQVLGRRISARGEDGDKYAQLLVETDTFGSQVRIKGKETEFYLCMNRKGKLVGKPDGTSKECVFIEKVLENNYTALMSAKYSGWYVGFTKKGRPRKGPKTRENQQDVHFMKRYPKGQPELQKPFKYTTVTKRSRRIRPTHPA
As for B2, in the experiment on human chondrocyte, the “% EdU” value turned out to be 6.039%.
